A short description of this series: amyloid nucleation score (Sup35N fusion, yeast selection) (log enrichment); library NNK1; higher = more nucleation; inactive = no reads after selection. In a few lines: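 DiMSum was used to calculate nucleation scores as log enrichment of output over input reads, centred on the mode score of non-aggregating sequences. Sequences with fewer than 100 input reads were not scored. Input and output came from Illumina sequencing of plasmid inserts in psi-negative yeast expressing peptides of 20 random codons fused to Sup35N, induced 24 hours with 100 μM copper sulfate and then grown 7 days at 30°C on medium lacking adenine and uracil.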

± gives the uncertainty stated by the source.

Regarding KSFACYNKDQ, the amyloid nucleation score amounted to 0.423 ± 0.99.

As to IRMVMGTNKFDHVKSRDN, the amyloid nucleation score entry is “inactive”.

Take IIVFGSLEELVGAGLLGRLR: the amyloid nucleation score was -0.106 ± 1.7.

The substance CNDHNNEYVNVSHTRRARL yielded an amyloid nucleation score of 0.99 ± 0.24.

In turn, IIIACFVSCNELVGVSVIKT gave an amyloid nucleation score of 0.037 ± 0.25.

Regarding DSPGSSGCKGATVHMSFTWG, the amyloid nucleation score came out at 0.731 ± 0.61.

On to QNPLMRNYNPRFCHCGLSAP, for which the amyloid nucleation score entry was “inactive”.

Substance LRCTCVECQWKRCESTLGGG gave an amyloid nucleation score of -1.02 ± 2.7.

In the case of SNGLGMVRDR, the amyloid nucleation score was -0.172 ± 0.67.

Consider PTIFFDYAHYQTGRVLMAL, for which the amyloid nucleation score amounted to 0.408 ± 0.35.

With YLTWQKTWRVRVSVLCTGTD, the amyloid nucleation score worked out at 0.638 ± 0.58.

Take RLDRWKHEMTAVSRCHKARM: the amyloid nucleation score was found to be 1.24 ± 0.74.

In the case of MSRFLTLMHFERNFV, the amyloid nucleation score was 0.566 ± 0.42.

Turning to VFGIRFLI, the amyloid nucleation score was -1.54 ± 2.7.

In turn, TDNDLVHYCTM came in with an amyloid nucleation score of 0.029 ± 0.59.

Consider INGFYCCRV, for which the amyloid nucleation score was determined as 0.787 ± 0.21.

Regarding LFLSWDSYPSLSKRTV, the amyloid nucleation score turned out to be 0.281 ± 0.42.

RQSSSSHSMNSGQNILPFRL: the amyloid nucleation score is 0.279 ± 0.93.

Substance FFWSYAYIVIRLVSTKCWY came in with an amyloid nucleation score of 0.011 ± 0.28.

In the case of STTVSIYWCRWGGSSLHDV, the amyloid nucleation score was 0.141 ± 1.4.

Consider TRCASC, for which the amyloid nucleation score turned out to be 0.3 ± 0.65.

As for ESYSYQGCFATYLQQNTWCT, the amyloid nucleation score is -0.008 ± 0.28.

For VVNSSS, the amyloid nucleation score was 0.537 ± 0.85.

In turn, RLFDVMTITYTRSLSSPSCD displayed an amyloid nucleation score of 0.405 ± 1.2.

In turn, NILVAIL registered an amyloid nucleation score of -1.45 ± 1.4.

PYAWSVNC yielded an amyloid nucleation score of -0.579 ± 0.4.

GYRSIGASGTQDLSQVVLNK came in with an amyloid nucleation score of 0.901 ± 0.98.

In the case of IATKGKDVVFVRCGPDPQL, the amyloid nucleation score came out at 1.04 ± 0.53.

The substance KMLVGHS registered an amyloid nucleation score of 0.087 ± 0.83.

Substance SLDGNFTKALLLKIR came in with an amyloid nucleation score of 1.08 ± 0.35.

Substance NDRLLMVRYILHFESNAMTW showed an amyloid nucleation score of 0.794 ± 0.38.

For the substance GLELLAGVIHSWVRGSGALW, the amyloid nucleation score is -0.868 ± 0.84.

The substance NRYFRMCFRLWFDPTWSVRA showed an amyloid nucleation score of 0.681 ± 0.85.

As to SDFVWRCFAMSIRLKRLYRS, the amyloid nucleation score is -0.68 ± 1.7.

For LLWDCVNLEGIEQFYCPHSD, the amyloid nucleation score was found to be 0.382 ± 0.44.

With TMHVMVGGYL, the amyloid nucleation score was determined as 1.38 ± 0.41.

Substance RNLCTWVNRKELLSSEYLLF gave an amyloid nucleation score of -0.249 ± 0.31.

Consider HILGPLIRSMMIFSCLVSVV, for which the amyloid nucleation score was 1.29 ± 0.36.

Consider VEVYFSFLNLIFSGMSVLVE, for which the amyloid nucleation score was determined as 0.129 ± 0.28.

IMVHWMIYCGRMYLHCSSIV: the amyloid nucleation score amounted to 0.086 ± 0.97.

On to SFSWLSRMTR, for which the amyloid nucleation score turned out to be 2 ± 0.1.

LWLNLILCFQWDPQRKC displayed an amyloid nucleation score of 4.09 ± 0.11.

YVASLYQYFYLLIKIDCVFF gave an amyloid nucleation score of -0.824 ± 0.97.

Substance FHYYMSFSGDGI registered an amyloid nucleation score of 0.724 ± 0.39.

Take SDSEGYLVEGWY: the amyloid nucleation score is 0.882 ± 0.87.

For GPGPCWKPITGGWRTRKFTR, the amyloid nucleation score came to 0.61 ± 0.56.

The substance AMCCYGYVCCFYGSEVG returned an amyloid nucleation score of 5.51 ± 0.078.

SFQFVSSCDIRRFAISRATG showed an amyloid nucleation score of -0.152 ± 0.47.

Regarding TRCYFNSLMCTDTNSCIAGV, the amyloid nucleation score was -0.135 ± 0.26.

For the substance SGVICWYQKLAGINDALRWA, the amyloid nucleation score stood at 1.21 ± 0.25.

Substance SSMVVVGRRNLSDWKEYYPM displayed an amyloid nucleation score of -0.283 ± 0.45.

On to NVAGMSPQSWVVDTSSR, for which the amyloid nucleation score was found to be 1.34 ± 0.4.

Take VLAPFVLPC: the amyloid nucleation score is -0.406 ± 0.41.

In turn, YLDVLGAFC displayed an amyloid nucleation score of -0.214 ± 0.47.

As for FSNTCWNLKYHSNGAANFFV, the amyloid nucleation score turned out to be 0.136 ± 0.96.

On to HKNSTVKSVWQDLMSDVDVD, for which the amyloid nucleation score is -0.028 ± 0.43.

Regarding WDCYCPWLTLKYEAGLRTSG, the amyloid nucleation score is -1.17 ± 1.9.

As for FASARQLMQTTDKHSVWYVV, the amyloid nucleation score was -1.87 ± 1.8.

With ECTCSIK, the amyloid nucleation score was determined as 0.03 ± 0.22.

The substance TPCNVLGNSGPVWSWNP had an amyloid nucleation score of 0.166 ± 0.81.

With FMFLESRPSNCSTTPCKY, the amyloid nucleation score is -0.29 ± 0.6.

On to YNRDRECWRIS, for which the amyloid nucleation score was determined as 1.17 ± 0.53.

Substance ARVTVNGFLWCYNLGIRLDF returned an amyloid nucleation score of -0.779 ± 1.6.

Turning to HDQSYSHSGSNGFRQKNEAN, the amyloid nucleation score came to 1.32 ± 0.5.

With FQCVFH, the amyloid nucleation score was 3.88 ± 0.062.

In the case of GKSILVVSFARKLF, the amyloid nucleation score was -0.18 ± 1.2.

The substance YSCWFKHRTALPIGSEGMTR displayed an amyloid nucleation score of 0.708 ± 0.53.

As for QSNPSPISNMLNPDCLYKNG, the amyloid nucleation score was -0.013 ± 0.2.

For the substance QRLCNQWMSDKLQY, the amyloid nucleation score was determined as 1.84 ± 0.67.

In turn, VYCVCYLWLKVVHKSLDTLS registered an amyloid nucleation score of 2.23 ± 0.079.

The substance SVYSVAFR displayed an amyloid nucleation score of 0.184 ± 0.78.

IGAHFQSNLVIKVNSLEN gave an amyloid nucleation score of 0.697 ± 0.63.

MKFDYFRRC gave an amyloid nucleation score of -0.471 ± 0.5.

For the substance LSMKSHFWKMMFTGNWSYVC, the amyloid nucleation score result is “inactive”.

YWRCCQVCRLRMDPQYFPDG: the amyloid nucleation score was -0.358 ± 0.69.

For LYGSNVVLSVRCGMHTTHCY, the amyloid nucleation score worked out at 2.81 ± 0.24.

In the case of LSCLRSYVTMHMGIIGYLFN, the amyloid nucleation score amounted to 0.218 ± 0.27.

LMGMRPFELHRRRGHGHVLG had an amyloid nucleation score of -0.019 ± 0.64.

On to TLSLFLRKGSRTLRCVCPRG, for which the amyloid nucleation score was -0.112 ± 0.33.

As to SGSNEWSRENLIGVFVVPGQ, the amyloid nucleation score was -0.21 ± 1.1.

The substance LGLPSVFRRHFAFMVRMLWY showed an amyloid nucleation score of 0.021 ± 0.75.

LGFTRIGPGALTAKA showed an amyloid nucleation score of -0.72 ± 1.2.

The substance SVKGLYLIDVLLSYGLTFGM came in with an amyloid nucleation score of -0.608 ± 0.53.

NMDGSVSCVCNILSFDYGGS displayed an amyloid nucleation score of 8.289 ± 0.077.

Take QFHFMPWIDMSFSHLVHVYG: the amyloid nucleation score was -0.741 ± 0.29.

In the case of IPMPLCCVIPPWFTTFFVNQ, the amyloid nucleation score is 4.81 ± 0.092.

Substance LESHSNTINIGCKNFGCNRG registered an amyloid nucleation score of 5.38 ± 0.073.

In the case of LSSTDFLGSDVDCFGNCNFL, the amyloid nucleation score was determined as 3.48 ± 0.13.

In the case of SLDVILVPMCTFCRGMAYCS, the amyloid nucleation score is 0.457 ± 1.1.

As to MRSGTVYMVYLVHLKSFKWL, the amyloid nucleation score is -0.265 ± 0.68.

LNSAVDMGCFVVNLYMLCIY showed an amyloid nucleation score of 4.22 ± 0.059.

The substance FSRKINVYG registered an amyloid nucleation score of -0.396 ± 0.66.

Turning to RASWNMNFSNFFDKMCRIPS, the amyloid nucleation score is -0.334 ± 0.35.

For the substance TSIRRRLVRFFFNILPVVGL, the amyloid nucleation score turned out to be 1.67 ± 0.17.

Consider ENDVLELFRFSLCLCHRPGG, for which the amyloid nucleation score entry is “inactive”.

As to FLVVETI, the amyloid nucleation score result was “inactive”.

For VLNNLDLCSIRIVSKVSLFM, the amyloid nucleation score came out at 6.88 ± 0.085.

In turn, QLSDVSRWSFIWLKGGQRST displayed an amyloid nucleation score of 0.334 ± 0.84.

For LSIRNTSTSRITTLFLGL, the amyloid nucleation score was determined as 1.88 ± 0.4.

SIFSSWMSWGLII yielded an amyloid nucleation score of 0.194 ± 0.39.

Substance CHCCEVSWCSVWKVCIYCNI gave an amyloid nucleation score of 5 ± 0.088.

Turning to SVSLTNGVAEADKRYASAWL, the amyloid nucleation score is -0.093 ± 0.31.

Regarding KSAYVANRGCRRLYGVHNKM, the amyloid nucleation score was -0.647 ± 0.71.

As to FVFGTFA, the amyloid nucleation score was determined as 0.485 ± 0.59.

Consider RFNTWFVNYLCHPLYSLEG, for which the amyloid nucleation score came out at 5.55 ± 0.064.

NKSVFVLFVWINSENNVYCE: the amyloid nucleation score amounted to 0.443 ± 0.62.

Regarding CVHTSVDDGRNYVKNLNDAR, the amyloid nucleation score result was “inactive”.

SCTWYKFWRKSIAMILAILS came in with an amyloid nucleation score of 0.169 ± 0.9.

For TIFNLLPMGC, the amyloid nucleation score came to 0.975 ± 0.58.

With RAKSGLMNGDGYRNVAQGDD, the amyloid nucleation score worked out at 0.155 ± 0.43.

As to TNDKCHSITVFSYREVDWTW, the amyloid nucleation score stood at 0.445 ± 0.29.

Substance ITSIANFLWIL returned an amyloid nucleation score of 3.03 ± 0.069.

With SIGVFNCNCHRNYEHRYRYM, the amyloid nucleation score stood at 1.22 ± 0.15.

Consider SLIYNRIRFLDGF, for which the amyloid nucleation score was 0.925 ± 1.1.

MLVCILSVFDKNPR returned an amyloid nucleation score of 2.78 ± 0.11.

In the case of VTVEIAWKMA, the amyloid nucleation score was found to be 0.054 ± 0.67.

Regarding WSFLANFNWMN, the amyloid nucleation score is 0.157 ± 1.4.

Consider RASRMHGQGPLKNVWEGLYQ, for which the amyloid nucleation score was 0.119 ± 0.98.

NHVSHWMLSSGKASRYHTRR returned an amyloid nucleation score of 0.142 ± 0.66.

Take TDFMFFWGDFMVTYTAVVCR: the amyloid nucleation score is -0.096 ± 0.44.

The substance KAFLTRRFLNLYVRIKPYMV yielded an amyloid nucleation score of -0.503 ± 0.3.

LLGDKLV gave an amyloid nucleation score of -0.096 ± 0.46.

Substance IGDRKMSY registered an amyloid nucleation score of 0.145 ± 0.71.

Turning to ITFERGYCTKNITFATTTCP, the amyloid nucleation score was determined as 1.23 ± 0.47.

YLLESSTIGIV gave an amyloid nucleation score of 0.474 ± 0.69.

For HSLGTCRFFVIAHSLK, the amyloid nucleation score worked out at 0.583 ± 0.69.

On to GYACYFSSSDYCWVAPHCGL, for which the amyloid nucleation score came to 1.01 ± 0.14.

RPPCCKWRDRRCTWGIS showed an amyloid nucleation score of 0.017 ± 0.51.

VNWIVVVFTNMLFLTKGRNA returned an amyloid nucleation score of 0.308 ± 0.27.

RNGSSMGPLSM yielded an amyloid nucleation score of -0.258 ± 0.71.

CPIWPVCWEVNHVPYLTKDI came in with an amyloid nucleation score of 0.58 ± 0.79.

Take LFALQGHGILSVHSFVRHWG: the amyloid nucleation score is 0.165 ± 1.1.

TDWFSSMLEN: the amyloid nucleation score was found to be 0.291 ± 0.3.

GVLLLIQSGNCRWRRSSRAP registered an amyloid nucleation score of 0.344 ± 0.65.

Substance HDLTWVSTSESFFSLMGHAS returned an amyloid nucleation score of -0.28 ± 0.29.

As for VFNARVSYSFNSMCWVRKKQ, the amyloid nucleation score is -2.08 ± 2.7.

RFFSGLIVHNLLCLCRPPNP came in with an amyloid nucleation score of 6.58 ± 0.078.

Regarding FGSFVFPCYAQPELIPFNLY, the amyloid nucleation score was 0.119 ± 0.72.

VAAACFFNRCWEHTYVMIVK: the amyloid nucleation score is 3.1 ± 0.17.
